These results are taken from patent publication US20090265797A1 (PIERRE FABRE MEDICAMENT, published 2009).

The target of experiment [1] is soluble human insulin-like growth factor-1 receptor (hIGF-IR) extra-cellular domain (ECD) (human) (UniProt P08069). Briefly: SPR, BIAcore T100, 25 °C; antibody captured by anti-human IgG Fc on CM5, hIGF-IR-ECD as analyte (6.25-100 nM). A general note: In SPR one partner is held on a chip, and binding of the other changes the refractive index at the surface.
Experiment [2] has the same target. Briefly: SPR, BIAcore T100, 25 °C; antibody captured by anti-human IgG Fc on CM5, hIGF-IR-ECD as analyte; KD = kd/ka.
For experiment [3], the target named is T1, human IGF-IR (hIGF-IR) from membrane lysate of NIH 3T3 cells stably transfected with the human IGF-IR cDNA, … (human, UniProt P08069 31-1367).
T1 construct: Whole receptor (alpha and beta subunits from one precursor) solubilised from membranes, not on cells; also called immobilized hIGF-IR; human IGF-1 receptor
T1 sequence (P08069 31-1367 limits assumed): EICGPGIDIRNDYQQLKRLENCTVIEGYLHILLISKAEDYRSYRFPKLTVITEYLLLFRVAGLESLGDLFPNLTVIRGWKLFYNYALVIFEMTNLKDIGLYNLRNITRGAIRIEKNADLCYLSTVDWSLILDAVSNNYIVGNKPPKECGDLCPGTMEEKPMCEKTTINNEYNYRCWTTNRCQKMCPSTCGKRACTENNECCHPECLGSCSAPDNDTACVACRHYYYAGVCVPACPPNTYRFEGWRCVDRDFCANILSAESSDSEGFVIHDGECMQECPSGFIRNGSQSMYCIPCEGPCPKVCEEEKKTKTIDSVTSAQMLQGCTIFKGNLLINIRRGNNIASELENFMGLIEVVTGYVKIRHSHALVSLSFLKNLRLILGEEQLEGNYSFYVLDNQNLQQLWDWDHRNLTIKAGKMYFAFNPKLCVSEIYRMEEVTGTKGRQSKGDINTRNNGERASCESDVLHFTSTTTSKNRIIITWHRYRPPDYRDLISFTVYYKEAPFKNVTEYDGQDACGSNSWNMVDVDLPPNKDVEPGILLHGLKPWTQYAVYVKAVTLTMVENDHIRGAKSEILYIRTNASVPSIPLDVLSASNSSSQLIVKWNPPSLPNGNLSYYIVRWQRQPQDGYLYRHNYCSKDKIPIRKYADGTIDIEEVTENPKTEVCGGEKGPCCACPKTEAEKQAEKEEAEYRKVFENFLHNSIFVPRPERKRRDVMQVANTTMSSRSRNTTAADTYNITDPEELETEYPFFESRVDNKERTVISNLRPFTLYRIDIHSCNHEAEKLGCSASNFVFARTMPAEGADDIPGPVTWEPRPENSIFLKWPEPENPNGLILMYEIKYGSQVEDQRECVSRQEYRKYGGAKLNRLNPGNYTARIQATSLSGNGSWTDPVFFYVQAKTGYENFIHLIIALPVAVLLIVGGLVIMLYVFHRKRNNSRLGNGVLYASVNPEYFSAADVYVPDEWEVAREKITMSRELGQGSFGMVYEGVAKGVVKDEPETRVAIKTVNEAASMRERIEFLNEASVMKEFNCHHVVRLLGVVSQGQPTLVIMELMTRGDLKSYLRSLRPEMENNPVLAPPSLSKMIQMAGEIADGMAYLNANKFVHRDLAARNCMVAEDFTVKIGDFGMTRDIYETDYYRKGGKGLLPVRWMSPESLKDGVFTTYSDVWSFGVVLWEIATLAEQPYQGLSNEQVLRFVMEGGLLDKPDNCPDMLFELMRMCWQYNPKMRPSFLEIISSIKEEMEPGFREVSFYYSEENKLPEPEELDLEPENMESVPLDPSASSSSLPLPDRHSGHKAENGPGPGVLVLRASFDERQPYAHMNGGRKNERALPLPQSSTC
Briefly: competition of 100 pM [125I]-IGF1 binding to hIGF-IR captured by antibody 17-69 on Protein A FlashPlate; displacement of [^125I]-IGF1 (not [^125I]-IGF2) from immobilized hIGF-IR. The procedure:
(§1) Two hundred μl of a 20 μg/ml antibody solution in PBS were added to each well and incubated overnight at +4° C. The buffer containing residual 17-69 not attached to protein A was removed by aspiration. Two hundred μl of the membrane lysate at 100 μg/ml were further added and incubated for 2 h at room temperature to immobilize IGF-IR. Non captured proteins were removed by aspiration. […] The plates were incubated at room temperature for 2 h, then counted on a Packard Top Count Microplate Scintillation Counter.
(§2) Concentrations of the various inhibitors required to inhibit the radioligand binding by 50% (IC₅₀) were determined graphically from the sigmoid competition curves obtained (FIGS. 1 and 2).

Experiment [4] concerns the target IGF-IR on MCF-7 or HT29 cells (human, UniProt P08069 31-1367). Description: cell-based or functional assay.
The target of experiment [5] is T1, human IGF-IR (hIGF-IR) from membrane …. Description: competition of 100 pM [125I]-IGF2 binding to hIGF-IR captured by antibody 17-69 on Protein A FlashPlate. The procedure:
as §1, §2

For experiment [6] the target is unchanged. Description: competition of 100 pM [125I]-IGF1 binding to immobilized hIGF-IR; reference: unlabeled IGF1. How it is done:
as §1, §2

IGF-IR on MCF-7 or HT29 cells, sequence (P08069 31-1367): as the sequence (P08069 31-1367 limits assumed) above

B1: Humanized I-3466 IgG1 antibody (antibody, V domains shown)
VH: EVQLVESGGDLVQPGGSLRLSCAASGFTFNNYIMSWVRQAPGKGLEWVATISGGGSYTFYPDSVKGRFTISRDNSKNTLYLQMNSLRAEDTAVYFCTRNQLLTGMINPLTTPRAWFTYWGQGTLVTVSS
VL: DIVMTQSPDSLAVSLGERATINCKSSQSLLDSRTRKNYLAWYQQKPGQPPKLLIYWASTRESGVPDRFSGSGSGTDFTLTISSLQAEDVAVYYCKQSYNLFTFGGGTKVEIK
A word on the koff: it is the first-order rate constant of dissociation. A higher koff goes with fast dissociation. The kon is the rate constant with which the complex forms. Usually Kd stands for the equilibrium constant for the complex coming apart. Lower therefore signals higher affinity. In experiment [1], B1 yielded a koff of 6.29e-05 s⁻¹ and a kon of 184000 M⁻¹ s⁻¹. The same molecule showed a Kd in experiment [2] of 0.342 nM.

B2: murine monoclonal antibody I-3466 (antibody, V domains shown)
VH: EVMLVESGGDLVKPGGSLKLSCAASGFTFNNYIMSWVRQTPEKRLEWVATISGGGSYTFYPDSVKGRFSISRDNAKNTLYLQMSSLRSEDTAMYFCTRNQLLTGMINPLTTPRAWFTYWGQGTLVTVSA
VL: DIVMSQSPSSLAVSAGEKVTMNCKSSQSLLDSRTRKNYLAWYQQKPGQSPKLLIYWASTRESGVPDRFTGSGSGTDFTLTISSVQAEDLAVYYCKQSYNLFTFGGGTKLEIK
notes: a mouse IgG1 (9G4) served as its isotype control
In general, IC50 refers to the concentration at which inhibition is half-maximal. Low values mean higher potency, high ones lower potency. In the case of B2, the IC50 in experiment [3] was found to be 0.021 nM. Also, in experiment [4], the “IC50 of inhibition of IGF1-induced proliferation of MCF-7 cells” value came to 0.7 nM and the “IC50 of inhibition of IGF2-induced proliferation of MCF-7 cells” value was determined as 0.5 nM. For the same molecule, in experiment [5], the half-inhibitory concentration (IC50) is approximately 0.1 nM. The “fold lower IC50 than non radiolabeled IGF1” value in experiment [6] was 30 fold.
